These results are taken from US20190359687A1 (Bayer, published 2019).

In test [1] the target is T1, Cynomolgus monkey glycophorin A on Cynomolgus monkey red blood cells (Cynomolgus monkey).
T1 construct: whole, on cells; also called Cyno RBC; Cyno GPA
As to the kind of experiment: FACS, RBC Cy01.
Protocol: (§1) The binding of the humanized variants to intact red blood cells (RBC) from humans (Hu01 to 03; 3 individuals), Rhesus monkey (Rh01 to 03; 3 individuals) and Cynomolgus monkey (Cy01 to 02; 2 individuals) was measured by fluorescence activated cell sorting (FACS).

The target in test [2] is T2, human glycophorin A in the red blood cell membrane (human, UniProt P02724 20-150).
T2 construct: whole, on cells; used for intact RBC, isolated RBC membranes and transfected cells; the assay field tells which; also called GPA; hGPA
T2 sequence (looked up): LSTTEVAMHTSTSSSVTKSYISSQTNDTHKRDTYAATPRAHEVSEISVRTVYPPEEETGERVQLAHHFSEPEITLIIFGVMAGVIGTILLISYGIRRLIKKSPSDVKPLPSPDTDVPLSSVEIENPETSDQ
Kind of test: FACS, RBC Hu02.
Protocol: as §1

Test [3] deals with T3, Rhesus monkey glycophorin A on Rhesus monkey red blood cells (Rhesus monkey, UniProt A0A1D5Q349 20-150).
T3 construct: whole, on cells; also called Rhesus RBC; monkey GPA
T3 sequence: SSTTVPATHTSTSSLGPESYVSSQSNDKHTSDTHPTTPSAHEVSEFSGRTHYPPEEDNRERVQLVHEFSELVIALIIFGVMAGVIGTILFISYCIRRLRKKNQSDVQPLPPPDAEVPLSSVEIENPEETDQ
Kind of test: FACS, RBC Rh02.

Test [4] has as its target T4, purified human glycophorin A protein (Sigma, cat # G5017) (human, UniProt P02724 20-150).
T4 construct: mature; also called Sigma hGPA; Sigma GPA
T4 sequence (looked up): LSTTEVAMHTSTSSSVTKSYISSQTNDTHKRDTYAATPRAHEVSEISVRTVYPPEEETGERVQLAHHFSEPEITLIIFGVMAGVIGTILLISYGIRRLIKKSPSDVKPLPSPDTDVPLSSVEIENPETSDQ
As to the kind of experiment: ELISA, IgG.

Test [5] deals with T3, Rhesus monkey glycophorin A on Rhesus …. As to the kind of experiment: FACS, RBC Rh01.
Protocol: as §1
Test [6] addresses T2, human glycophorin A in the red blood …. As to the kind of experiment: FACS, RBC Hu01.
Protocol: as §1
Test [7] has as its target T3, Rhesus monkey glycophorin A on Rhesus …. Kind of test: FACS, RBC Rh03.
Protocol: as §1
The target of test [8] is T1, Cynomolgus monkey glycophorin A on …. As to the kind of experiment: FACS, RBC Cy02.
Protocol: as §1
Test [9] concerns the target T2, human glycophorin A in the red blood …. As to the kind of experiment: FACS, RBC Hu03.
Protocol: as §1

B1: Hu6C12-12 (antibody, V domains shown)
VH: EVQLVQSGAEVKKPGASVKVSCKASGYTFTTYTIHWVRQAPGQGLEWMGYINPSSDYTRYNPKFKDRVTMTTDTSTSTAYMELRSLRSDDTAVYYCQTGTRDYWGQGTTVTVSS
VL: DIQLTQSPSFLSASVGDRVTITCSAASSVSYIYWYQQKPGKAPKLLIYSTSTLPSGVPSRFSGSGSGTEYTLTISSLQPEDFATYYCHQRNSFPFTFGQGTKLEIK
notes: IgG format; VH.1c + Vk.1a
B1: the fluorescence intensity worked out at 959 in test [1]; 393 in [2]; 1400 in [3]; 1480 in [5]; 646 in test [6]; 1410 in test [7]. Moreover, the fluorescence intensity in [8] was 1030; in test [9], 484. In test [4], this molecule came in with an EC50 of 10.4 nM.

B2: Hu6C12-15 (antibody, V domains shown)
VH: EVQLVQSGAEVKKPGASVKVSCKASGYTFTTYTIHWVRQAPGQGLEWMGYINPSSDYTRYNPKFKDRVTLTTDTSTSTAYMELRSLRSDDTAVYYCQTGTRDYWGQGTTVTVSS
VL: DIQLTQSPSFLSASVGDRVTITCSAASSVSYIYWYQQKPGKAPKLLIYSTSTLPSGVPSRFSGSGSGTEYTLTISSLQPEDFATYYCHQRNSFPFTFGQGTKLEIK
notes: IgG format; VH.1f + Vk.1a
On to B2, for which the fluorescence intensity in [1] is 1010; in test [2], 375; in test [3], 1480; in test [5] it was 1520; in [6], 590; in test [7] it was 1490. The results for the fluorescence intensity in test [8] and in [9] were 1070 and 482, respectively. In addition, the EC50 in test [4] came to 9.69 nM.

B3: Hu6C12-7 (antibody, V domains shown)
VH: EVQLVQSGAEVKKPGASVKVSCKASGYTFTTYTIHWVRQAPGQGLEWIGYINPSSDYTRYNPKFKDRVTLTTDKSTSTAYMELRSLRSDDTAVYYCQTGTRDYWGQGTTVTVSS
VL: DIQLTQSPSFLSASVGDRVTITCSAASSVSYIYWYQQKPGKAPKLLIYSTSTLPSGVPSRFSGSGSGTEFTLTISSLQPEDFATYYCHQRNSFPFTFGQGTKLEIK
notes: IgG format; VH.1g + Vk.1
Take B3: the fluorescence intensity stood at 1360 in [1]; 945 in test [2]; 1940 in [3]; 2060 in [5]; 1230 in [6]; 1920 in [7]. The fluorescence intensity in test [8] was determined as 1430; in [9], 1100. In [4], this molecule gave an EC50 of 1.78 nM.

B4: Hu6C12-5 (antibody, V domains shown)
VH: EVQLVQSGAEVKKPGASVKVSCKASGYTFTTYTIHWVRQAPGQGLEWMGYINPSSDYTRYNPKFKDRVTLTTDTSTSTAYMELRSLRSDDTAVYYCATGTRDYWGQGTTVTVSS
VL: DIQLTQSPSFLSASVGDRVTITCSAASSVSYIYWYQQKPGKAPKLLIYSTSTLPSGVPSRFSGSGSGTEFTLTISSLQPEDFATYYCHQRNSFPFTFGQGTKLEIK
notes: IgG format; VH.1e + Vk.1
As for B4, the fluorescence intensity in test [1] was 1070; in test [2], 625; in [3], 1550; in test [5] it was 1660; in [6] it was 921; in test [7] it was 1560. Further, the fluorescence intensity came out at 1140 in test [8] and 758 in test [9]. This molecule also registered an EC50 in test [4] of 8.45 nM.

B5: Hu6C12-3 (antibody, V domains shown)
VH: EVQLVQSGAEVKKPGASVKVSCKASGYTFTTYTIHWVRQAPGQGLEWMGYINPSSDYTRYNPKFKDRVTMTTDTSTSTAYMELRSLRSDDTAVYYCQTGTRDYWGQGTTVTVSS
VL: DIQLTQSPSFLSASVGDRVTITCSAASSVSYIYWYQQKPGKAPKLLIYSTSTLPSGVPSRFSGSGSGTEFTLTISSLQPEDFATYYCHQRNSFPFTFGQGTKLEIK
notes: IgG format; VH.1c + Vk.1
As to B5, the fluorescence intensity in [1] was determined as 1120; in test [2] it was 739; in [3] it was 1600; in [5], 1730; in test [6], 1070; in test [7] it was 1600. In addition, the fluorescence intensity in test [8] is 1200; in [9], 862. Further, the EC50 in test [4] stood at 2.17 nM.

B6: Hu6C12-2 (antibody, V domains shown)
VH: EVQLVQSGAEVKKPGASVKVSCKASGYTFTTYTIHWVRQAPGQGLEWMGYINPSSDYTRYNPKFKDRVTMTTDTSTSTAYMELRSLRSDDTAVYYCATGTRDYWGQGTTVTVSS
VL: DIQLTQSPSFLSASVGDRVTITCSAASSVSYIYWYQQKPGKAPKLLIYSTSTLPSGVPSRFSGSGSGTEFTLTISSLQPEDFATYYCHQRNSFPFTFGQGTKLEIK
notes: IgG format; VH.1b + Vk.1
As for B6, the fluorescence intensity in test [1] was determined as 962; in [2], 603; in test [3], 1400; in [5], 1530; in test [6] it was 897; in test [7], 1380. For the same molecule, the fluorescence intensity in [8] was determined as 1030; in test [9] it was 716. The concentration giving a half-maximal response (EC50) in test [4] came out at 8.65 nM.

B7: Hu6C12-16 (antibody, V domains shown)
VH: EVQLVQSGAEVKKPGASVKVSCKASGYTFTTYTIHWVRQAPGQGLEWIGYINPSSDYTRYNPKFKDRVTLTTDKSTSTAYMELRSLRSDDTAVYYCQTGTRDYWGQGTTVTVSS
VL: DIQLTQSPSFLSASVGDRVTITCSAASSVSYIYWYQQKPGKAPKLLIYSTSTLPSGVPSRFSGSGSGTEYTLTISSLQPEDFATYYCHQRNSFPFTFGQGTKLEIK
notes: IgG format; VH.1g + Vk.1a
Consider B7, for which the fluorescence intensity came out at 1270 in [1]; 637 in [2]; 1860 in test [3]; 2000 in [5]; 895 in test [6]; 1870 in test [7]. Further, the fluorescence intensity came to 1360 in test [8] and 786 in test [9]. This molecule came in with an EC50 in test [4] of 4.8 nM.

B8: Hu6C12-6 (antibody, V domains shown)
VH: EVQLVQSGAEVKKPGASVKVSCKASGYTFTTYTIHWVRQAPGQGLEWMGYINPSSDYTRYNPKFKDRVTLTTDTSTSTAYMELRSLRSDDTAVYYCQTGTRDYWGQGTTVTVSS
VL: DIQLTQSPSFLSASVGDRVTITCSAASSVSYIYWYQQKPGKAPKLLIYSTSTLPSGVPSRFSGSGSGTEFTLTISSLQPEDFATYYCHQRNSFPFTFGQGTKLEIK
notes: IgG format; VH.1f + Vk.1
Consider B8, for which the fluorescence intensity in [1] was 1060; in test [2], 634; in test [3], 1520; in test [5], 1640; in test [6], 909; in [7] it was 1540. Moreover, the fluorescence intensity was found to be 1100 in test [8] and 786 in test [9]. In test [4], this molecule gave an EC50 of 3.46 nM.

B9: Hu6C12-20 (antibody, V domains shown)
VH: EVQLVQSGAEVKKPGASVKVSCKASGYTFTTYTIHWVRQAPGQGLEWMGYINPSSDYTRYNPKFKDRVTMTTDTSTSTAYMELRSLRSDDTAVYYCQTGTRDYWGQGTTVTVSS
VL: DIQLTQSPSFLSASVGDRVTITCSAASSVSYIYWFQQKPGKAPKLLIYSTSTLPSGVPSRFSGSGSGTEYTLTISSLQPEDFATYYCHQRNSFPFTFGQGTKLEIK
notes: IgG format; VH.1c + Vk.1b
Regarding B9, the fluorescence intensity stood at 1070 in test [1]; 1300 in test [2]; 1620 in [3]; 1670 in [5]; 1670 in test [6]; 1550 in test [7]. For the same molecule, the fluorescence intensity in test [8] was determined as 1250; in [9] it was 1460. The same molecule came in with an EC50 in test [4] of 0.393 nM.

B10: Hu6C12-19 (antibody, V domains shown)
VH: EVQLVQSGAEVKKPGASVKVSCKASGYTFTTYTIHWVRQAPGQGLEWMGYINPSSDYTRYNPKFKDRVTMTTDTSTSTAYMELRSLRSDDTAVYYCATGTRDYWGQGTTVTVSS
VL: DIQLTQSPSFLSASVGDRVTITCSAASSVSYIYWFQQKPGKAPKLLIYSTSTLPSGVPSRFSGSGSGTEYTLTISSLQPEDFATYYCHQRNSFPFTFGQGTKLEIK
notes: IgG format; VH.1b + Vk.1b
As to B10, the fluorescence intensity in test [1] stood at 1040; in test [2], 1270; in test [3], 1510; in test [5], 1620; in test [6] it was 1630; in [7], 1520. The fluorescence intensity in test [8] worked out at 1240; in test [9], 1440. In test [4], this molecule displayed an EC50 of 0.876 nM.
